In article doi:10.1101/2021.08.10.455837:

Target: human HBEGF (human) (UniProt Q99075)
UniProt Q99075, sequence (Q99075 20-208): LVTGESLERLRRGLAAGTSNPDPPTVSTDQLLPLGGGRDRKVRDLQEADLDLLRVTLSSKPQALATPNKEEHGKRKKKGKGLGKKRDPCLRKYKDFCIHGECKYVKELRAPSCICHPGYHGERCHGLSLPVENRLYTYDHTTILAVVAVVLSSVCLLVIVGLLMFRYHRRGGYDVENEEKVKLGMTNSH

“Diphtheria toxin (from UniProt P00588 33-567) (natural protein)” showed an EC50 of toxicity (dose titration) on WT ARN8 cells (basal levels of HBEGF) of 0.026 nM.
